This is an account of results in patent US20050014220A1.

In the experiment the target is bovine thrombin (bovine) (UniProt P00735). Kind of experiment: cell-based or functional assay.

“mutated murine thrombomodulin lacking the N-terminal lectin-like domain, expressed on COS cells (from UniProt P15306 17-577) (receptor)” came in with a rate of change in absorbance of the chromogenic substrate S2238 at 405 nm (thrombin-dependent activation of protein C on COS cells) of 0.23 units/min.

“wild-type murine thrombomodulin expressed on COS cells (from UniProt P15306 17-577) (receptor)” displayed a rate of change in absorbance of the chromogenic substrate S2238 at 405 nm (thrombin-dependent activation of protein C on COS cells) of 0.21 units/min.
